# Test results: paper PMC6859858
# T1: Fip1 (human, UniProt Q6UN15 159-200)
# T1 chain: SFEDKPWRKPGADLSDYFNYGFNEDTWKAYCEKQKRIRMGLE
# Legend:
# Fip1 = biological target: T1, Fip1; assay: fluorescence polarization
# [1] = biological target: T2, CPSF-160;WDR33;CPSF-30;Fip1 (human;human;human;human, UniProt Q10570;Q9C0J8;O95639;Q6UN15 1-1443;1-425;1-269;159-200, |||); assay: fluorescence polarization
# Target sequence in this assay (Q10570 whole entry, chain 1 of 4, one chain of several): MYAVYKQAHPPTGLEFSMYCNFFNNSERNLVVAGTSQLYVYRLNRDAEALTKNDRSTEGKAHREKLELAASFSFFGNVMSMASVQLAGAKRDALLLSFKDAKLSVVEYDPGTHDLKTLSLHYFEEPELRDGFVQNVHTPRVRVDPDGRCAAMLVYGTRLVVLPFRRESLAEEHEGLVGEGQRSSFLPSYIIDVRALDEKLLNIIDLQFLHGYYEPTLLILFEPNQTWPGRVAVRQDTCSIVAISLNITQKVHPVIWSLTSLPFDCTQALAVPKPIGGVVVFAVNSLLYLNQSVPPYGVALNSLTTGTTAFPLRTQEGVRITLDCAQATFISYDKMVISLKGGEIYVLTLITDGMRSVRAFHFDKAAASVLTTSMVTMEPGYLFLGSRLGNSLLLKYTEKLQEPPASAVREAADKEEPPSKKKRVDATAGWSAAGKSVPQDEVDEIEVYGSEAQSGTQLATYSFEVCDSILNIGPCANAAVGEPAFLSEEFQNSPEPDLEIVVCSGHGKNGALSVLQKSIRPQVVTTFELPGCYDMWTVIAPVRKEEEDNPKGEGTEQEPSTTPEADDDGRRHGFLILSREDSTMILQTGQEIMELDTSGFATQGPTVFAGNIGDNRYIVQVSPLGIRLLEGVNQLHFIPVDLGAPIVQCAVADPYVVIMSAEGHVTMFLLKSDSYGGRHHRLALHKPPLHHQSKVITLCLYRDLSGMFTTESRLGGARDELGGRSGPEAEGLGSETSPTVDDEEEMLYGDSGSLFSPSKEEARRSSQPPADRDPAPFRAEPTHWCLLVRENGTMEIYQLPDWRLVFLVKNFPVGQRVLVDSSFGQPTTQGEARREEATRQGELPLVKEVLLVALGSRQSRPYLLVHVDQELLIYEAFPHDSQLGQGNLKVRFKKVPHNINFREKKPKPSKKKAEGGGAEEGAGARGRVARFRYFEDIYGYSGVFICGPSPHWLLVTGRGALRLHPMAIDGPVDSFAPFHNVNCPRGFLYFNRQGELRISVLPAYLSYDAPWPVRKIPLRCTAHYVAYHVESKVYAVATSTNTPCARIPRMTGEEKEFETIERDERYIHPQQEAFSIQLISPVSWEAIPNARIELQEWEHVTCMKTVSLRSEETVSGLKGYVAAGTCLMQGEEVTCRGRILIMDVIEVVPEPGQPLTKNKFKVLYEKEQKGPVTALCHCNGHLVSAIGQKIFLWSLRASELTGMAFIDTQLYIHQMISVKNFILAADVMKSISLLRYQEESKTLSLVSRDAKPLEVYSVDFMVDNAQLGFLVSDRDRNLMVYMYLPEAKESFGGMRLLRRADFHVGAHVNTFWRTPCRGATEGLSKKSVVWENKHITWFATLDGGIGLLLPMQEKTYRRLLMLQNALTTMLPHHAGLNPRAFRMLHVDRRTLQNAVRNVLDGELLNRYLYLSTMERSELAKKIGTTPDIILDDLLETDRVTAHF
# Target sequence in this assay (Q9C0J8 1-425, chain 2 of 4, one chain of several): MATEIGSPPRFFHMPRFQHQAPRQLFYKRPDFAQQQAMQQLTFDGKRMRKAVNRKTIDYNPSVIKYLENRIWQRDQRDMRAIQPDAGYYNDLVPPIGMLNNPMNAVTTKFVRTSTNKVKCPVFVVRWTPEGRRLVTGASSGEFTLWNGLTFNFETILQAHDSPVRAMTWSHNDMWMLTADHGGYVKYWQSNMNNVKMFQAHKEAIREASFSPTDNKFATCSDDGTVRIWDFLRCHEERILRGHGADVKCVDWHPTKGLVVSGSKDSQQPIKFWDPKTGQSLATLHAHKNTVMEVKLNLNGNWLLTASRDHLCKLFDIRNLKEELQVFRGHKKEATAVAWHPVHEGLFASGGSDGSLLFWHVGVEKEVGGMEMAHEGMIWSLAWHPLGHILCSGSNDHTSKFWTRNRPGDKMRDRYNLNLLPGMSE
# Target sequence in this assay (O95639 whole entry, chain 3 of 4, one chain of several): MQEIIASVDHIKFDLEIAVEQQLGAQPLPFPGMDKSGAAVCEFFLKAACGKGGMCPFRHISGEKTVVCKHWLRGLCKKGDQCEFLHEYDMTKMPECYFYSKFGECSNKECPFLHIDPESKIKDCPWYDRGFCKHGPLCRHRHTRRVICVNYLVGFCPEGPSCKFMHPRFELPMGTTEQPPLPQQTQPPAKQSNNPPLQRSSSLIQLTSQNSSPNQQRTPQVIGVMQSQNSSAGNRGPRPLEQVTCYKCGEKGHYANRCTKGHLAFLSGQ
# [2] = biological target: CPSF-160;WDR33;CPSF-30 H70A;Fip1 (human;human;human;human, UniProt Q10570;Q9C0J8;O95639;Q6UN15 1-1443;1-425;1-269;159-200, ||H70A|); assay: fluorescence polarization
# [3] = biological target: CPSF-160;WDR33;CPSF-30 F112A;Fip1 (human;human;human;human, UniProt Q10570;Q9C0J8;O95639;Q6UN15 1-1443;1-425;1-269;159-200, ||F112A|); assay: fluorescence polarization
# [4] = biological target: CPSF-160;WDR33;CPSF-30 R73A;Fip1 (human;human;human;human, UniProt Q10570;Q9C0J8;O95639;Q6UN15 1-1443;1-425;1-269;159-200, ||R73A|); assay: fluorescence polarization
# [5] = biological target: CPSF-160;WDR33;CPSF-30 F84A;Fip1 (human;human;human;human, UniProt Q10570;Q9C0J8;O95639;Q6UN15 1-1443;1-425;1-269;159-200, ||F84A|); assay: fluorescence polarization
# [6] = biological target: T2, CPSF-160;WDR33;CPSF-30;Fip1; assay: fluorescence polarization; remark: listed apart in the source
# Target sequence in this assay (Q10570 whole entry, chain 1 of 4, one chain of several): as the sequence (Q10570 whole entry, chain 1 of 4, one chain of several) above
# Target sequence in this assay (Q9C0J8 1-425, chain 2 of 4, one chain of several): as the sequence (Q9C0J8 1-425, chain 2 of 4, one chain of several) above
# Target sequence in this assay (O95639 whole entry, chain 3 of 4, one chain of several): as the sequence (O95639 whole entry, chain 3 of 4, one chain of several) above
# CPSF-160;WDR33;CPSF-30 = CPSF-160;WDR33;CPSF-30 (human;human;human, UniProt Q10570;Q9C0J8;O95639 1-1443;1-425;1-269, ||); assay: fluorescence polarization
# [7] = biological target: T2, CPSF-160;WDR33;CPSF-30;Fip1; assay: fluorescence polarization; remark: listed apart in the source
# Target sequence in this assay (Q10570 whole entry, chain 1 of 3): as the sequence (Q10570 whole entry, chain 1 of 4, one chain of several) above
# Target sequence in this assay (Q9C0J8 1-425, chain 2 of 3): as the sequence (Q9C0J8 1-425, chain 2 of 4, one chain of several) above
# Target sequence in this assay (O95639 whole entry, chain 3 of 3): as the sequence (O95639 whole entry, chain 3 of 4, one chain of several) above
# [8] = biological target: T2, CPSF-160;WDR33;CPSF-30;Fip1; assay: competition fluorescence polarization
# Target sequence in this assay (Q10570 whole entry, chain 1 of 4, one chain of several): as the sequence (Q10570 whole entry, chain 1 of 4, one chain of several) above
# Target sequence in this assay (Q9C0J8 1-425, chain 2 of 4, one chain of several): as the sequence (Q9C0J8 1-425, chain 2 of 4, one chain of several) above
# Target sequence in this assay (O95639 whole entry, chain 3 of 4, one chain of several): as the sequence (O95639 whole entry, chain 3 of 4, one chain of several) above
# [9] = biological target: T2, CPSF-160;WDR33;CPSF-30;Fip1; assay: competition fluorescence polarization; remark: listed apart in the source
# Target sequence in this assay (Q10570 whole entry, chain 1 of 3): as the sequence (Q10570 whole entry, chain 1 of 4, one chain of several) above
# Target sequence in this assay (Q9C0J8 1-425, chain 2 of 3): as the sequence (Q9C0J8 1-425, chain 2 of 4, one chain of several) above
# Target sequence in this assay (O95639 whole entry, chain 3 of 3): as the sequence (O95639 whole entry, chain 3 of 4, one chain of several) above
binder,measurement,setting,value
AACCUCCAAUAAACAAC (ssRNA) [17-mer AAUAAA PAS],binding result,Fip1,no binding
same,Kd,[1],0.19 ± 0.03 nM
same,binding signal,[2],90 fold higher Kd than wild type
same,binding signal,[3],140 fold higher Kd than wild type
same,binding signal,[4],17 fold higher Kd than wild type
same,binding signal,[5],8 fold higher Kd than wild type
same,Kd,[6],0.28 ± 0.07 nM
same,Kd,CPSF-160;WDR33;CPSF-30,0.25 ± 0.05 nM
same,binding signal,[7],3 fold higher Kd than maximal binding
"CAAUAAACAAC (ssRNA) [11-mer AAUAAA PAS, FAM]",Kd,[6],0.32 ± 0.04 nM
"AAUAAA (ssRNA, 3' phosphate linking the FAM) [6-mer AAUAAA, FAM]",Kd,[6],8.05 ± 0.45 nM
"CAAUAAAC (ssRNA) [8-mer AAUAAA, unlabeled]",Kd,[8],57 ± 18 nM
"AAUAAAC (ssRNA) [7-mer AAUAAAC, unlabeled]",binding signal,[9],35 fold higher Kd than 11-mer
